Measurements reported in patent publication US8679765B2, “Methods and compositions for diagnosis and treatment of malignant and non-malignant gammopathies” (Ludwig Institute for Cancer Research Ltd., priority 2009, dated 2014).

How the values were obtained:
[1] = test system: paratarg-specific paraprotein (patients' sera); test: Paraprotein binding to recombinant paratarg, stomatin family members and paratarg peptides/fragments (dot blot, ELISA, peptide spot analysis); design: species or system human; conditions: for recognition by paratarg-specific paraproteins / patients' serum: ELISA, Western blotting or peptide spot analysis
Method: 100 ng of each recombinant protein were separated by SDS-PAGE and transferred to PVDF membrane (Millipore Immobilon) by semidry blotting. The membrane was blocked in TST/milk buffer (10% milk in 10 mM Tris/HCl, pH 7.5, 150 mM NaCl, 0.1% (v/v) Tween 20) overnight, washed and incubated for 1 h with serum in TST (paraprotein patients serum at a dilution of 1:10^8 and control patients serum at a dilution of 1:10^3). After three washings in TST, the membranes were incubated for 1 h at RT with goat anti-human IgG AP-coupled antibody (Dianova) diluted 1:5,000 in TST, subsequently washed in TST followed by AP-development.
His6-tagged fusion proteins were spotted on nitrocellulose membranes. After spotting, the protein arrays were blocked, incubated and detected as described above.
The epitopes recognized by the patients' paraproteins were identified as described before (Preuss et al, 2006). In brief: matrix-bound synthesized decamer peptides with 5 amino acids overlaps between every 2nd consecutive decamer covering the entire paratarg sequence were used to screen patients sera. Paratarg-specific paraproteins binding to the corresponding paratarg epitopes were visualized by ECL technique according to the suppliers' instructions (PIERCE, Rockford, USA). Finally, matrix stripes were photographed for documentation.
Full-length paratarg was recombinantly expressed in HEK293 cells under control of CMV promoter introducing a FLAG tag at the C-terminus of the protein. Total cell extract was prepared and coated indirectly to Nunc maxisorb plates using anti-FLAG mAb (Sigma). Elisa was performed according standard protocols. Partially truncated paratarg fragments were processed accordingly.
Paratarg fragments were obtained by PCR amplification using suitable primers and verified by sequencing. These fragments were subcloned into the vector and expressed as described before.

[2] = test system: paraproteins of serum pool #1 (MGUS/MM patients' sera); test: Serum profiling on high density protein arrays (paraprotein screening of hEx1 human fetal brain macroarray); format: binding; design: key: Paraprotein-binding quality/strength are ++, + and ±.; Paraprotein-binding quality/strength are ++, + and ±.; Paraprotein-binding quality/strength are ++, + and ±; conditions: serum pool #1 (n=114), each serum diluted 1:10^8
Method: Screening analyses were performed on hEx1 high-density protein expression cDNA libraries, created in Hans Lehrach's laboratory at the Max Planck Institute for Molecular Genetics in Berlin (Germany) and obtained from the Reference Center of the German Human Genome Project (RZPD) (Bussow et al, 1998). These high-density filter membranes display proteins that were expressed from a modified pQE protein expression vector (Qiagen). This vector featured a hexahistidine tag, a T5 promoter and two lac operator sequences, which allowed repression during the growth phase by overexpression of the Lac repressor protein, and subsequent induction of protein expression with isopropyl-beta-D-thiogalactopyranoside (IPTG).
High density protein arrays of the protein expression set of the hEx1 library were obtained from the German Resource Center for Genome Research (RZPD) and provided by Dr. Mahlknecht from our department. They consist of 37,200 independent clones derived from a human fetal brain cDNA expression library and were used for autoantibody detection. For serum profiling, the filters were blocked in 10% (w/v) non-fat, dry milk powder in TBST (TBS, 0.1% (v/v) Tween 20) at 4° C. overnight, washed twice in TBST, and incubated for 1 h with serum pool #1 at a dilution of 1:10^8 for each serum. Following three 30-min TBST washes and subsequent incubation with the secondary antibody (goat anti-human IgG biotinylated, Dianova, diluted 1:2.500) and Strep-PDX (1:15.000) in 2% (w/v) Milk/TBST, the filters were washed three times for 30 min in TBST. This was followed by detection using Pharmacia ECL system. Positive signals were localized according to the manufacturer's protocol. Corresponding clones were obtained from RZPD.
In this study we screened a human high-density protein array containing 37,200 independent recombinant proteins derived from a human fetal brain expression library with sera obtained from patients with monoclonal gammopathy of undetermined significance (MGUS) and multiple myeloma (MM).
The signal pattern obtained from the screening with the paraprotein pools at a dilution of 1:10^8 were compared with the patterns obtained from screening with the control sera from clinically healthy donors and to background incubations. […] 5′- and 3′-tag sequencing of these clones was performed, and their sequences were used for BLAST searches against public databases at NCBI.
Using serum pool #1 (paraprotein type: 15 IgA, 88 IgG, 11 oligoclonal, n=114) we identified 14 putative paraprotein targets on the human protein filter array (FIG. 1, Tab. 1). […] Sequence searches and comparisons using the in-frame sequences identified five known proteins and one unknown gene product derived from chromosome 8.

Molecule | recognition by paratarg-specific paraproteins / patients' serum [1] | Signal-quality (paraprotein-binding quality/strength) [2] | also measured
SLLASGRAPRRASSG [15 amino acid region near the N-terminal end of paratarg] | recognized by patients' serum | – | –
SLP-1: recombinantly expressed human stomatin family member (protein) MLGRSGYRALPLGDFDRFQQSSFGFLGSQKGCLSPERGGVGTGADVPQSWPSCLCHGLISFLGFLLLLVTFPISGWFALKIVPTYERMIVFRLGRIRTPQGPGMVLLLPFIDSFQRVDLRTRAFNVPPCKLASKDGAVLSVGADVQFRIWDPVLSVMTVKDLNTATRMTAQNAMTKALLKRPLREIQMEKLKISDQLLLEINDVTRAWGLEVDRVELAVEAVLQPPQDSPAGPNLDSTLQQLALHFLGGSMNSMAGGAPSPGPADTVEMVSEVEPPAPQVGARSSPKQPLAEGLLTALQPFLSEALVSQVGACYQFNVVLPSGTQSAYFLDLTTGRGRVGHGVPDGIPDVVVEMAEADLRALLCRELRPLGAYMSGRLKVKGDLAMAMKLEAVLRALK | no signal | – | –
MPMGp800P18577: RZPD clone, NM_004323.3 (protein, UniProt Q99933 1-345, looked up) BAG family molecular …: MAQRGGARRPRGDRERLGSRLRALRPGREPRQSEPPAQRGPPPSGRPPARSTASGHDRPTRGAAAGARRPRMKKKTRRRSTRSEELTRSEELTLSEEATWSEEATQSEEATQGEEMNRSQEVTRDEESTRSEEVTREEMAAAGLTVTVTHSNEKHDLHVTSQQGSSEPVVQDLAQVVEEVIGVPQSFQKLIFKGKSLKEMETPLSALGIQDGCRVMLIGKKNSPQEEVELKKLKHLEKSVEKIADQLEELNKELTGIQQGFLPKDLQAEALCKLDRRVKATIEQFMKILEEIDTLILPENFKDSRLKRKGLVKKVQAFLAECDTVEQNICQETERLQSTNFALAE | – | + | –
paratarg: stomatin-like protein 2 (SLP-2), SEQ ID NO: 1, antigenic paraprotein target (protein, listed as Homo sapiens) MLARAARGTGALLLRGSLLASGRAPRRASSGLPRNTVVLFVPQQEAWVVERMGRFHRILEPGLNILIPVLDRIRYVQSLKEIVINVPEQSAVTLDNVTLQIDGVLYLRIMDPYKASYGVEDPEYAVTQLAQTTMRSELGKLSLDKVFRERESLNASIVDAINQAADCWGIRCLRYEIKDIHVPPRVKESMQMQVEAERRKRATVLESEGTRESAINVAEGKKQAQILASEAEKAEQINQAAGEASAVLAKAKAKAEAIRILAAALTQHNGDAAASLTVAEQYVSAFSKLAKDSNTILLPSNPGDVTSMVAQAMGVYGALTKAPVPGTPDSLSSGSSRDVQGTDASLDEELDRVKMS | – | – | serum dilution at which recognition was detectable ([1]; individual patient sera): 10^10; titer of paraprotein-containing sera reacting with the antigen ([1]; sera of more than two patients): > 10^8
MPMGp800E08596: RZPD clone coding for paratarg (protein, left off: small tags and cut ends, RZPD clone coding for paratarg) MLARAARGTGALLLRGSLLASGRAPRRASSGLPRNTVVLFVPQQEAWVVERMGRFHRILEPGLNILIPVLDRIRYVQSLKEIVINVPEQSAVTLDNVTLQIDGVLYLRIMDPYKASYGVEDPEYAVTQLAQTTMRSELGKLSLDKVFRERESLNASIVDAINQAADCWGIRCLRYEIKDIHVPPRVKESMQMQVEAERRKRATVLESEGTRESAINVAEGKKQAQILASEAEKAEQINQAAGEASAVLAKAKAKAEAIRILAAALTQHNGDAAASLTVAEQYVSAFSKLAKDSNTILLPSNPGDVTSMVAQAMGVYGALTKAPVPGTPDSLSSGSSRDVQGTDASLDEELDRVKMS | – | ++ | –

Second part, led by results:

recognition by paratarg-specific paraproteins / patients' serum [1] | Signal-quality (paraprotein-binding quality/strength) [2] | Molecule | also measured
recognized | – | SLLASGRAP [paratarg amino acid region] | –
no signal | – | stomatin: recombinantly expressed human stomatin family member | –
– | + | MPMGp800P21581: RZPD clone, NM_001622.1 (protein, UniProt P02765 19-300; P02765 341-367, looked up) Alpha-2-HS-glycoprotein chain … 1: APHGPGLIYRQPNCDDPETEEAALVAIDYINQNLPWGYKHTLNQIDEVKVWPQQPSGELFEIEIDTLETTCHVLDPTPVARCSVRQLKEHAVEGDCDFQLLKLDGKFSVVYAKCDSSPDSAEDVRKVCQDCPLLAPLNDTRVVHAAKAALAAFNAQNNGSNFQLEEISRAQLVPLPPSTYVEFTVSGTDCVAKEATEAAKCNLLAEKQYGFCKATLSEKLGGAEVAVTCMVFQTQPVSSQPQPEGANEAVPTPVVDPDAPPSPPLGAPGLPPAGSPPDSHVL Alpha-2-HS-glycoprotein chain … 2: TVVQPSVGAAAGPVVPPCPGRIRHFKV | –
– | + | MPMGp800E08580: RZPD clone, NM_004819.1 (protein, UniProt Q92797 1-1274, looked up) Symplekin: MASGSGDSVTRRSVASQFFTQEEGPGIDGMTTSERVVDLLNQAALITNDSKITVLKQVQELIINKDPTLLDNFLDEIIAFQADKSIEVRKFVIGFIEEACKRDIELLLKLIANLNMLLRDENVNVVKKAILTMTQLYKVALQWMVKSRVISELQEACWDMVSAMAGDIILLLDSDNDGIRTHAIKFVEGLIVTLSPRMADSEIPRRQEHDISLDRIPRDHPYIQYNVLWEEGKAALEQLLKFMVHPAISSINLTTALGSLANIARQRPMFMSEVIQAYETLHANLPPTLAKSQVSSVRKNLKLHLLSVLKHPASLEFQAQITTLLVDLGTPQAEIARNMPSSKDTRKRPRDDSDSTLKKMKLEPNLGEDDEDKDLEPGPSGTSKASAQISGQSDTDITAEFLQPLLTPDNVANLVLISMVYLPEAMPASFQAIYTPVESAGTEAQIKHLARLMATQMTAAGLGPGVEQTKQCKEEPKEEKVVKTESVLIKRRLSAQGQAISVVGSLSSMSPLEEEAPQAKRRPEPIIPVTQPRLAGAGGRKKIFRLSDVLKPLTDAQVEAMKLGAVKRILRAEKAVACSGAAQVRIKILASLVTQFNSGLKAEVLSFILEDVRARLDLAFAWLYQEYNAYLAAGASGSLDKYEDCLIRLLSGLQEKPDQKDGIFTKVVLEAPLITESALEVVRKYCEDESRTYLGMSTLRDLIFKRPSRQFQYLHVLLDLSSHEKDKVRSQALLFIKRMYEKEQLREYVEKFALNYLQLLVHPNPPSVLFGADKDTEVAAPWTEETVKQCLYLYLALLPQNHKLIHELAAVYTEAIADIKRTVLRVIEQPIRGMGMNSPELLLLVENCPKGAETLVTRCLHSLTDKVPPSPELVKRVRDLYHKRLPDVRFLIPVLNGLEKKEVIQALPKLIKLNPIVVKEVFNRLLGTQHGEGNSALSPLNPGELLIALHNIDSVKCDMKSIIKATNLCFAERNVYTSEVLAVVMQQLMEQSPLPMLLMRTVIQSLTMYPRLGGFVMNILSRLIMKQVWKYPKVWEGFIKCCQRTKPQSFQVILQLPPQQLGAVFDKCPELREPLLAHVRSFTPHQQAHIPNSIMTILEASGKQEPEAKEAPAGPLEEDDLEPLTLAPAPAPRPPQDLIGLRLAQEKALKRQLEEEQKLKPGGVGAPSSSSPSPSPSARPGPPPSEEAMDFREEGPECETPGIFISMDDDSGLTEAALLDSSLEGPLPKETAAGGLTLKEERSPQTLAPVGEDAMKTPSPAAEDAREPEAKGNS | –
